Test results published in patent US20040248184A1 (published 2004).

B1: human REG protein (REG Iα) (ligand, UniProt P05451 23-166, looked up)
chain: QEAQTELPQARISCPEGTNAYRSYCYYFNEDRETWVDADLYCQNMNSGNLVSVLTQAEGAFVASLIKESGTDDFNVWIGLHDPKKNRRWHWSSGSLVSYKSWGIGAPSSVNPGYCVSLTSSTGFQKWKDVPCEDKFSFVCKFKN
notes: mature; also called human REG Iα; REG Ia
B2: rat Reg protein (Reg I) (ligand, UniProt P10758 22-165, looked up)
chain: QEAEEDLPSARITCPEGSNAYSSYCYYFMEDHLSWAEADLFCQNMNSGYLVSVLSQAEGNFLASLIKESGTTAANVWIGLHDPKNNRRWHWSSGSLFLYKSWDTGYPNNSNRGYCVSVTSNSGYKKWRDNSCDAQLSFVCKFKA
modifications: as tracer labelled with 125I using Bolton-Hunter reagent; used unlabelled as competitor
notes: mature; also called rat Reg I
B3: rat Reg-binding protein comprising 364 amino acids (cDNA isolated in Example 5, expression vector pCI-167.1) (receptor)
chain: MTGYTMLRNGGVGNGGQTCMLRWSNRIRLTWLSFTLFIILVFFPLIAHYYLTTLDEADEAGKRIFGPRAGNELCEVKHVLDLCRIRESVSEELLQLEAKRQELNSEIAKLNLKIEACKKSIENAKQDLLQLKNVISQTEHSYKELMAQNQPKLSLPIRLLPEKDDAGLPPPKVTRGCRLHNCFDYSRCPLTSGFPVFVYDSDQFAFGSYLDPLVKQAFQATVRANVYVTENAAIACLYVVLVGEIQEPAVLQPADLEKQLHSLPHWRTDGHNHVIINLSRKSDTQNLLYNVSTGRAMVAQSTFYAAQYRAGFDLVVSPLVHAMSEPNFMEIPRVTIFSLGRGEEEQEKLGVWRGRPPPGWGAGP
notes: also called 1.6 kbp cDNA clone
B4: rat Reg receptor (rat Reg-binding protein, rat homologue of human EXTL3/EXTR1), 919 amino acids, with N-terminal HA tag (receptor)
chain: YPYDVPDYAMTGYTMLRNGGVGNGGQTCMLRWSNRIRLTWLSFTLFIILVFFPLIAHYYLTTLDEADEAGKRIFGPRAGNELCEVKHVLDLCRIRESVSEELLQLEAKRQELNSEIAKLNLKIEACKKSIENAKQDLLQLKNVISQTEHSYKELMAQNQPKLSLPIRLLPEKDDAGLPPPKVTRGCRLHNCFDYSRCPLTSGFPVFVYDSDQFAFGSYLDPLVKQAFQATVRANVYVTENAAIACLYVVLVGEIQEPAVLQPADLEKQLHSLPHWRTDGHNHVIINLSRKSDTQNLLYNVSTGRAMVAQSTFYAAQYRAGFDLVVSPLVHAMSEPNFMEIPPQVPVKRKYLFTFQGEKIESLRSSLQEARSFEEEMEGDPPADYDDRIIATLKAVQDSKLDQVLVEFTCKNQPKPSLPTEWALCGEREDRLELLKLSTFALIITPGDPSLLISSGCATRLFEALEVGAVPVVLGEQVQLPYHDMLQWNEAALVVPKPRVTEVHFLLRSLSDSDLLAMRRQGRFLWETYFSTADSIFNTVLAMIRTRIQIPAAPIREEVAAEIPHRSGKAAGTDPNMADNGDLDLGPVETEPPYASPKYLRNFTLTVTDCYRSWNSAPGPFHLFPHTPFDPVLPSEAKFLGSGTGFRPIGGGAGGSGKEFQAALGGNVQREQFTVVMLTYEREEVLMNSLERLNGLPYLNKVVVVWNSPKLPSEDLLWPDIGVPIMVVRTEKNSLNNRFLPWNEIETEAILSIDDDAHLRHDEIMFGFRVWREARDRIVGFPGRYHAWDIPHQSWLYNSNYSCELSMVLTGAAFFHKYYAYLYSYVMPQAIRDMVDEYINCEDIAMNFLVSHITRKPPIKVTSRWTFRCPGCPQALSHDDSHFHERHKCINFFVKVYGYMPLLYTQFRVDSVLFKTRLPHDKTKCFKFI
notes: also called rEXTL3; pCI•rEXTL3

Tests used:
[1] = biological target: B4; experiment: displacement of 125I rat Reg protein (competitor tracer) from CHO cells stably expressing the rat Reg receptor
Method: (§1) The rat Reg-binding protein (also called EXTL3/EXTR1) expression vector constructed in Example 8 or the control vector was introduced into COS-7 cells by electroporation and expressed transiently. CHO cells expressing the Reg receptor stably were isolated as described above. The cells (7.5×10⁵ cells) were washed with RPMI1640 (Roswell Park Memorial institute 1640 medium) and incubated on ice in the presence of ¹²⁵I labeled rat Reg protein (50 ng/ml, 1.5×10⁵ cpm/ml) with various concentrations of unlabeled rat Reg or human REG protein in RPMI1640 containing 1% fetal calf serum for 2 h. After washing with RPMI1640 three times, cells were solubilized by 1 ml of 100 mM Tris-HCl (pH 7.6), 1 mM EDTA and 1% Triton X-100. The radioactivity of the lysate was-determined by a γ-counter (Cobra, Packard). As a result, rat Reg binding protein expression vector-introduced-COS-7 cells bound to ¹²⁵I-labeled rat Reg protein and the binding was decreased by the addition of unlabeled Reg protein (FIG. 6).

[2] = biological target: B4; experiment: displacement of 125I rat Reg protein from CHO cells stably expressing the rat Reg receptor
Method: as §1

rat Reg protein (Reg I) [3] = biological target: B2; experiment: binding of 10 nM [125I] rat Reg I to transiently transfected COS-7 cells on ice for 2 h, gamma counting, with (+) or without (-) 100-fold unlabelled rat Reg I
Method: Specifically, first, [¹²⁵I] rat Reg I stock solution (50 ng/μl=˜3.33 μM, 2.7×10⁵ cpm/μl) was diluted to 10 nM using DMEM. In addition, a diluted solution in which non-labeled Reg I stock solution (2250 ng/μl=150 μM) was added at 100-folds the concentration of [¹²⁵I] Reg I (1 μm), was prepared.
3 ml of 2.5×10⁵ cells/ml transfected COS cells were seeded onto 6 well plates and cultured at 37° C. for 2 days. After washing with ice-cold DMEM, 3 ml DMEM containing [¹²⁵I] rat Reg I was added (10 nM, final concentration). In a competitive inhibition experiment, 100-fold amount of non-labeled Reg I coexisted. After keeping on ice for 2 hours and then washing 3 times with DMEM, 1 ml/well of [100 mM Tris-HCl (pH 7.6), 1 mM EDTA, 1% Triton X-100] was added to lyze the cells, and [¹²⁵I] radioactivity was counted by using a γ-counter.

[4] = biological target: B1; experiment: competition binding on CHO cells stably expressing the rat Reg receptor (line RegR-#3): unlabelled human REG is varied against 125I rat Reg protein (50 ng/ml), gamma counting
Method: as §1

rat Reg protein (Reg I) [5] = biological target: B2; experiment: radioligand binding of 125I rat Reg protein to CHO cells stably expressing the rat Reg receptor
Method: as §1

Q: Which Ki [1] does the source give for B1 here?
A: 7.41 nM

Q: For B2, which Ki [2] is on record?
A: 1.61 nM

Q: Does B3 bind (rat Reg protein (Reg I) [3])?
A: binds

Q: Which results are given for B4?
A: binding result [4]: binds; Kd (rat Reg protein (Reg I) [5]): 4.41 nM
